Data taken from US20220110942A1 (SAINT LOUIS UNIVERSITY, published 2022).
Ends that are not written are not given here. fluorescein = fluorescein tag at the N-terminus

B1: Human GCNF (NR6A1) ligand binding domain (LBD), residues 248-480, hexahistidine-tagged (receptor, UniProt Q15406 248-480, looked up)
chain: PQSYSLIHQLLSAEDLEPLGTPMLIEDGYAVTQAELFALLCRLADELLFRQIAWIKKLPFFCELSIKDYTCLLSSTWQELILLSSLTVYSKQIFGELADVTAKYSPSDEELHRFSDEGMEVIERLIYLYHKFHQLKVSNEEYACMKAINFLNQDIRGLTSASQLEQLNKRYWYICQDFTEYKYTHQPNRFPDLMMCLPEIRYIAGKMVNVPLEQLPLLFKVVLHSCKTSVGKE
notes: range 248-480; Expressed in E. coli as a 263-amino acid hexahistidine-tagged construct (30.4 kDa); about 60 kDa homodimer by analytical size exclusion; The tag is placed first as a guess; also called GCNF LBD; wild-type GCNF; not shown: 3C protease-cleavable hexahistidine tag from pET45b(+)

Columns and labels:
[1] = target: the molecule itself; test: analytical size exclusion chromatography with SDS-PAGE of the pooled fractions
[2] = target: B1; test: fluorescence polarization, 500 nM fluorescein-tagged peptide, GCNF LBD titrated
Experimental: (§1) FP Assay. Fluorescence polarization (FP) assays were performed in triplicate on a 384-well Corning 3820 black opaque plate using a Biotek Synergy Neo2 HTS multimode microplate reader at excitation and emission wavelengths of 485 nm and 538 nm, respectively. Data were analyzed and plotted using GraphPad Prism as mean±SEM.
For the corepressor peptide FP binding assay, 70.0, 35.0, 17.5, 8.8, 4.4, 2.2, 1.1, 0.55, 0.27, 0.14, and 0 μM of GCNF LBD was mixed with 500 nM N-terminus fluorescein-tagged corepressor peptides NCoR ID1 ([…] (SEQ ID NO: 1)), NCoR ID2 ([…] (SEQ ID NO: 2)), SMRT ID1 ([…] (SEQ ID NO: 3)), or SMRT ID2 ([…] (SEQ ID NO: 4)) (ThermoFisher Scientific) in assay buffer containing 50 mM HEPES (pH 7.5), 50 mM KCl, 5 mM TCEP, 0.5 mM EDTA and 0.005% Tween20. The relative polarization was plotted against the GCNF LBD concentration and fitted via nonlinear regression (one site specific binding with Hill slope) to extract KD.

[3] = target: B1; test: fluorescence polarization, 500 nM fluorescein-tagged peptide, GCNF LBD titrated 0-70 µM
Experimental: GCNF protein binds directly to DR0 sites or direct repeats of AGGTCA with no spacing between half sites in the promoters of both the Oct4 and Nanog genes and is thought to repress target genes via interactions with corepressors SMRT and NCoR (Furhmann et al., 2001; Gu et al., 2005; Yan et al., 2000). To determine whether ligand binding can affect the interaction between GCNF and its associated corepressor proteins SMRT and NCoR, a fluorescence polarization assay was performed to monitor the ability of ligands to affect corepressor peptide recruitment to the GCNF LBD. Since GCNF LBD was predicted to interact with transcriptional corepressors NCoR and SMRT via its N-terminal portion (Furhmann et al., 2001; Yan et al., 1997; Yan et al., 2000), an FP assay was initially performed consisting of different fluorescein-tagged peptides derived from these corepressors. […] Meanwhile, titrating 34, but not ligand 80, increased the recruitment of SMRT ID2, the tighter binding corepressor peptide (FIG. 4C). […]
as §1

Row | Binder | binding result [2] | other results
1 | B1 | – | binding result [1]: binds
2 | fluorescein-DPASNLGLEDIIRKALMGSFDDK (Bought from ThermoFisher Scientific; 500 nM in the FP assay; also called NCoR box 2) [NCoR ID2 corepressor peptide, N-terminus fluorescein-tagged] | no binding (tested: GCNF LBD up to 70.0 µM) | –
3 | fluorescein-RTHLITLADHICQIITQDFARN (Bought from ThermoFisher Scientific; 500 nM in the FP assay; also called NCoR box 1) [NCoR ID1 corepressor peptide, N-terminus fluorescein-tagged] | – | Kd [3]: 32 µM
4 | fluorescein-GHQRVVTLAQHISEVITQDYTRH (Bought from ThermoFisher Scientific; 500 nM in the FP assay; also called SMRT box 1) [SMRT ID1 corepressor peptide, N-terminus fluorescein-tagged] | no binding (tested: GCNF LBD up to 70.0 µM) | –
